Experimental data as given in publication doi:10.1101/2024.02.27.582253, “Identification of an evolutionary conserved binding motif responsible for the recruitment of NMD factors to the UPF1 helicase” (bioRxiv, 2024).
Blank lines part the entries; values can stand above or below the binder they belong to.

Target: T1, S. cerevisiae Upf1 helicase domain, Upf1-HD-His6 (residues 221-851) (S. cerevisiae, UniProt P30771 221-851)
T1 construct: Upf1 helicase domain, S. cerevisiae, residues 221-851; residues 224-851 seen in the final model; for the crystal it says only that the protein was purified on TALON resin; source: E. coli BL21 (DE3) Gold, purified (TALON, heparin, SEC); not shown: His6, C-terminal, kept
T1 sequence (looked up): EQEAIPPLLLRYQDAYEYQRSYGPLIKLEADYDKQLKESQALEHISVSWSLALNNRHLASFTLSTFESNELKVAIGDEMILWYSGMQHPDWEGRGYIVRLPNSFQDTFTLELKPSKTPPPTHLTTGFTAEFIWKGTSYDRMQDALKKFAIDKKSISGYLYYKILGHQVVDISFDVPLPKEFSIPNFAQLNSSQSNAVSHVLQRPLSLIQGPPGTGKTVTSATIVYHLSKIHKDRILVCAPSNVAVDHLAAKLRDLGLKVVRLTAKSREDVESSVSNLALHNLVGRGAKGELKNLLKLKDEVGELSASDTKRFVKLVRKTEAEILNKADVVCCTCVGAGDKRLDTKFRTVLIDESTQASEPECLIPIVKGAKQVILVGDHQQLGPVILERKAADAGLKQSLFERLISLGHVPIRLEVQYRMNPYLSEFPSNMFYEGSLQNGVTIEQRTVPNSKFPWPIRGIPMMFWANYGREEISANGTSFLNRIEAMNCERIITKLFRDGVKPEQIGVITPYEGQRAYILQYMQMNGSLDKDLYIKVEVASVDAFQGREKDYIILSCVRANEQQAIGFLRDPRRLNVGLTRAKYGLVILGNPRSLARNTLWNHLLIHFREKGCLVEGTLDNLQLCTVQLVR
Assay: ITC; His6-ZZ-Nmd4 proteins (260 µM full-length and arm, 330 µM PIN) injected into Upf1-HD-His6 (30-35 µM); 20°C; 100 mM Bis-Tris pH 6.5, 200 mM NaCl, 5 mM MgCl2, 5 mM 2-mercaptoethanol; one-binding site model
Settings: both partners purified

Kd: 2100 nM
B1: His6-ZZ-Nmd4 full-length protein (S. cerevisiae) (natural protein, UniProt Q12129 1-218, looked up)
chain: MTQYNFIIDASAFEKGLGNIKRWCSDCTEAVTLNFYIPTFTLNELDFLQQRRKSFAARESLKFIDRLDDSKFANLKVFIEFPEVLDIILWSDVMEHNDSSGKINIAKLPKRLKNLLKSCIYKCYLEGNEGLHWFLISEDPQIREMAMQCNIPSCSIVDVDSILSKDMNDKSFRESEKFNNMMLKNGTKEESENGREIIRTNFNKTVYASRGTGELWSP
notes: also called full-length Nmd4; His6-ZZ-Nmd4-FL; source: E. coli BL21 (DE3) Gold, purified (Ni-NTA, heparin, SEC; 3C digestion omitted); not shown: His6, N-terminal, kept; ZZ, N-terminal, kept

Kd: 1960 nM
B2: His6-ZZ-Nmd4 « arm » (residues 168-218) (domain or fragment, S. cerevisiae, UniProt Q12129 168-218, looked up)
chain: NDKSFRESEKFNNMMLKNGTKEESENGREIIRTNFNKTVYASRGTGELWSP
notes: Nmd4 C-terminal arm, S. cerevisiae, residues 168-218; also called « arm » region; source: E. coli BL21 (DE3) Gold, purified; not shown: His6, N-terminal, kept; ZZ, N-terminal, kept
